From publication PMC3873911 (PLoS ONE, 2013)
Residues, ends and D or L forms follow the SMILES beside them.

Assays:
Format in all cases: cell-based
[1] = target: T1, NPSR receptor (Homo sapiens, UniProt Q6W5P4); assay: NFAT-luciferase reporter assay in HEK293T cells over-expressing NPSR (intracellular Ca2+ signaling); conditions: HEK293T co-transfected with NFAT-luciferase reporter (50 ng), pSV-β-Gal (5 ng), NPSR plasmid (50 ng), after 36 h, 18 h with peptide in serum-free media, normalized to β-galactosidase, at least three experiments in triplicates, Graphpad Prism 5.0; for EC50: read-out: Agonist effect (NFAT) EC50
T1 construct: Full length cDNA for the NPSR receptor was purchased from OriGene Technologies; host or cells: HEK293T
T1 sequence (Q6W5P4 1-371): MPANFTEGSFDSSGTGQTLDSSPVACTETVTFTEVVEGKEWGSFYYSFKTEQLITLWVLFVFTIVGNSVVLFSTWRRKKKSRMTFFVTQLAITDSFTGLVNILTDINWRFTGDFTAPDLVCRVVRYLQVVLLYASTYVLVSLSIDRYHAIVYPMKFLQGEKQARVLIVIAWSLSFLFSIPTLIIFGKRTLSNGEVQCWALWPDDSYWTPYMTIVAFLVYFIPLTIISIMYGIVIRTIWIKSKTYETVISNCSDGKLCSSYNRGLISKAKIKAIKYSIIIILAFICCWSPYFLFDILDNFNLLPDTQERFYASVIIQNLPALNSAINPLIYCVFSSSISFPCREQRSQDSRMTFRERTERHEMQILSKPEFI
Procedure: (§1) HEK293T cells seeded in 24-well plates were co-transfected with different luciferase reporters (50 ng), the pSV-β-Gal plasmid (5 ng), and the NPSR receptor plasmid (50 ng). After 36 h, cells were cultured in serum-free media for another 18 h with increasing doses of the various NPS peptides. Luciferase activities were determined using the luciferase assay kit (Promega) and normalized using β-galactosidase activities. All experiments were performed at least three times in triplicates. Data (EC50) were analyzed using Graphpad Prism 5.0.
(§2) Figure 2 Sequence comparison and lower NPSR receptor signaling ability of the L^6-NPS variant. (A) Alignment of NPS among diverse vertebrate species. Sequences were aligned by the ClustalW program. Stars indicate identical amino acids and double dots (:) indicate conserved amino acids. The predicted convertase cleavage sites (KR) were underlined and the 6th amino acid “V” or “L” in the mature peptide region are shown in bold. (B) Comparison of NPS and L^6-NPS signaling based on the CRE-luciferase assay. (C) Comparison of NPS and L^6-NPS signaling based on the NFAT luciferase assay. HEK293T cells seeded in 24-well plates were co-transfected with different luciferase reporters (50 ng), the pSV-β-Gal plasmid (5 ng), and the NPSR receptor plasmid (50 ng). After 36 h, cells were cultured in serum-free media for another 18 h with increasing doses of the various NPS peptides. EC50 values were analyzed using Graphpad Prism 5.0.
(§3) To compare the bioactivity of wide type NPS (NPS) and the SNP variant (L^6-NPS), we monitored their receptor-activation activities in vitro using HEK293T cells over-expressing NPSR. Because NPS activates NPSR by increasing cAMP production and intracellular Ca^2+ signaling, [10], we used CRE- and NFAT- response elements to measure cAMP and intracellular Ca2+ signaling respectively, [36]. As expected, treatment with wide-type NPS led to dose-dependent stimulation of both CRE- and NFAT- luciferase activities (Fig. 2B and C). We also performed the relaxin-LGR7 ligand-receptor pair as a positive control for the CRE-luciferase assay. Also, gastrin-CCKB ligand-receptor pair was used as a positive control for the SRE-luciferase assay. Cells transfected with the empty vector were also treated with NPS to serve as a negative control (Fig. S4).

[2] = target: T1, NPSR receptor; assay: CRE-luciferase reporter assay in HEK293T cells over-expressing NPSR (cAMP signaling); conditions: for EC50 / Agonist effect (CRE) EC50: HEK293T co-transfected with CRE-luciferase reporter (50 ng), pSV-β-Gal (5 ng), NPSR plasmid (50 ng), after 36 h, 18 h with peptide in serum-free media, normalized to β-galactosidase, at least three experiments in triplicates, apparent EC50, Graphpad Prism 5.0; for EC50: read-out: Agonist effect (CRE) EC50; for bioactivity in the CRE-luciferase assay (in words): 6th position substitution mutants, HEK293T with NPSR, Fig. 3A
Procedure: as §1, §2, §3

[3] = target: T2, LGR7 (Homo sapiens, UniProt Q9HBX9); assay: CRE-luciferase assay, relaxin-LGR7 ligand-receptor pair (positive control); conditions: Fig. S4
T2 construct: expressed in transfected cells; host or cells: HEK293T (inferred from the general luciferase protocol)
T2 sequence (Q9HBX9 1-757): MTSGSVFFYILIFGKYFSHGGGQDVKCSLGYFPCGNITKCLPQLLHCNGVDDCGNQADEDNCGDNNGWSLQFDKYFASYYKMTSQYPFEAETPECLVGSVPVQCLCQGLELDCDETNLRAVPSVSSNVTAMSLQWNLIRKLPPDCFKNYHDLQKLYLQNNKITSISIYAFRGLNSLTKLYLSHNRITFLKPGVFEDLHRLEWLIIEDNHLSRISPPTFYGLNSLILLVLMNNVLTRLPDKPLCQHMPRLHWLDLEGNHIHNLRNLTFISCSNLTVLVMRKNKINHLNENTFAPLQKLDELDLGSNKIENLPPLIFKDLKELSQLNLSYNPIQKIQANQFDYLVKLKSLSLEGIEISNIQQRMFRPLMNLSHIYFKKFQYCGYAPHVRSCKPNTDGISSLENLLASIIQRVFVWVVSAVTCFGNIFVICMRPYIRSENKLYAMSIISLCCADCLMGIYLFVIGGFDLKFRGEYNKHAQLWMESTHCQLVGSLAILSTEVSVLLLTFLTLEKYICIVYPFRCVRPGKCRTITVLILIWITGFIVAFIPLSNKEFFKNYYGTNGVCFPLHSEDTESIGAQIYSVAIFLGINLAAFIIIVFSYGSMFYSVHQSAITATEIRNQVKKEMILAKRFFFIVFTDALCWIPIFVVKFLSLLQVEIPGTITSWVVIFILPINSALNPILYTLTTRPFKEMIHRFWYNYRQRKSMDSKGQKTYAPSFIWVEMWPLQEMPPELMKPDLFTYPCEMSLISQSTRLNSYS
Source text: as §3
Supplementary file pone.0083009.s004.pdf: Figure S4 Positive control and negative control for the CRE- and SRE- luciferase assay. […] (PDF) Click here for additional data file.

| Compound | EC50 [1] [nM] | EC50 [2] [nM] | Agonist effect (NFAT) EC50 [1] | bioactivity in the CRE-luciferase assay (in words) [2] | Agonist effect (CRE) EC50 [2] | stimulation of CRE-luciferase via LGR7 [3] |
| --- | --- | --- | --- | --- | --- | --- |
| CSCC[C@H](NC(=O)CNC(=O)[C@@H](NC(=O)CNC(=O)[C@@H](NC(=O)CNC(=O)[C@H](CC(N)=O)NC(=O)[C@H](CCCNC(=N)N)NC(=O)[C@H](Cc1ccccc1)NC(=O)[C@@H](N)CO)C(C)C)[C@@H](C)O)C(=O)N[C@@H](CCCCN)C(=O)N[C@@H](CCCCN)C(=O)N[C@H](C(=O)N[C@@H](CO)C(=O)N[C@@H](Cc1ccccc1)C(=O)N[C@@H](CCC(N)=O)C(=O)N[C@@H](CCCNC(=N)N)C(=O)N[C@@H](C)C(=O)N[C@@H](CCCCN)C(=O)N[C@@H](CO)C(=O)O)[C@@H](C)O [NPS, Neuropeptide S, reference compound] (H-SFRNGVGTGMKKTSFQRAKS-OH) | 44.6 | 36.9 |  |  |  |  |
| N^6-NPS: NPS mutant with asparagine at the 6th position (SFRNGNGTGMKKTSFQRAKS; Neuropeptide S; UniProt P0C0P6 70-89, looked up, variant V6N) |  |  | inactive | complete loss of bioactivity | inactive |  |
| CSCC[C@H](NC(=O)CNC(=O)[C@@H](NC(=O)CNC(=O)[C@H](CC(C)C)NC(=O)CNC(=O)[C@H](CC(N)=O)NC(=O)[C@H](CCCNC(=N)N)NC(=O)[C@H](Cc1ccccc1)NC(=O)[C@@H](N)CO)[C@@H](C)O)C(=O)N[C@@H](CCCCN)C(=O)N[C@@H](CCCCN)C(=O)N[C@H](C(=O)N[C@@H](CO)C(=O)N[C@@H](Cc1ccccc1)C(=O)N[C@@H](CCC(N)=O)C(=O)N[C@@H](CCCNC(=N)N)C(=O)N[C@@H](C)C(=O)N[C@@H](CCCCN)C(=O)N[C@@H](CO)C(=O)O)[C@@H](C)O [L^6-NPS] (H-SFRNGLGTGMKKTSFQRAKS-OH) | 975 | 586 |  |  |  |  |
| D^6-NPS: NPS mutant with aspartic acid at the 6th position (SFRNGDGTGMKKTSFQRAKS; Neuropeptide S; UniProt P0C0P6 70-89, looked up, variant V6D) |  |  | inactive | complete loss of bioactivity | inactive |  |
| F^6-NPS: NPS mutant with phenylalanine at the 6th position (SFRNGFGTGMKKTSFQRAKS; Neuropeptide S; UniProt P0C0P6 70-89, looked up, variant V6F) |  |  | inactive | complete loss of bioactivity | inactive |  |
| CSCC[C@H](NC(=O)CNC(=O)[C@@H](NC(=O)CNC(=O)[C@H](C)NC(=O)CNC(=O)[C@H](CC(N)=O)NC(=O)[C@H](CCCNC(=N)N)NC(=O)[C@H](Cc1ccccc1)NC(=O)[C@@H](N)CO)[C@@H](C)O)C(=O)N[C@@H](CCCCN)C(=O)N[C@@H](CCCCN)C(=O)N[C@H](C(=O)N[C@@H](CO)C(=O)N[C@@H](Cc1ccccc1)C(=O)N[C@@H](CCC(N)=O)C(=O)N[C@@H](CCCNC(=N)N)C(=O)N[C@@H](C)C(=O)N[C@@H](CCCCN)C(=O)N[C@@H](CO)C(=O)O)[C@@H](C)O [A^6-NPS] (H-SFRNGAGTGMKKTSFQRAKS-OH) | 958 | 534 |  |  |  |  |
| relaxin |  |  |  |  |  | normal stimulation |
| CC[C@H](C)[C@H](NC(=O)CNC(=O)[C@H](CC(N)=O)NC(=O)[C@H](CCCNC(=N)N)NC(=O)[C@H](Cc1ccccc1)NC(=O)[C@@H](N)CO)C(=O)NCC(=O)N[C@H](C(=O)NCC(=O)N[C@@H](CCSC)C(=O)N[C@@H](CCCCN)C(=O)N[C@@H](CCCCN)C(=O)N[C@H](C(=O)N[C@@H](CO)C(=O)N[C@@H](Cc1ccccc1)C(=O)N[C@@H](CCC(N)=O)C(=O)N[C@@H](CCCNC(=N)N)C(=O)N[C@@H](C)C(=O)N[C@@H](CCCCN)C(=O)N[C@@H](CO)C(=O)O)[C@@H](C)O)[C@@H](C)O [I^6-NPS] (H-SFRNGIGTGMKKTSFQRAKS-OH) | 280 | 174 |  |  |  |  |
| K^6-NPS: NPS mutant with lysine at the 6th position (SFRNGKGTGMKKTSFQRAKS; Neuropeptide S; UniProt P0C0P6 70-89, looked up, variant V6K) |  |  | inactive | complete loss of bioactivity | inactive |  |
